These results are taken from patent US20220204621A1 (UCL BUSINESS, published 2022).

The target in experiment [1] is human Receptor Tyrosine Kinase Like Orphan Receptor 1 (ROR1), full length (human) (UniProt Q01973). Description: cell-based or functional assay.
In experiment [2] the target is human ROR1 with the combination of Q(261)H and I(254)V (human, UniProt Q01973 30-937, limits assumed). Description: antibody binding to mutated human ROR1 constructs.
Sequence of human ROR1 with the combination of Q(261)H and I(254)V (Q01973 30-937 I254V/Q261H limits assumed): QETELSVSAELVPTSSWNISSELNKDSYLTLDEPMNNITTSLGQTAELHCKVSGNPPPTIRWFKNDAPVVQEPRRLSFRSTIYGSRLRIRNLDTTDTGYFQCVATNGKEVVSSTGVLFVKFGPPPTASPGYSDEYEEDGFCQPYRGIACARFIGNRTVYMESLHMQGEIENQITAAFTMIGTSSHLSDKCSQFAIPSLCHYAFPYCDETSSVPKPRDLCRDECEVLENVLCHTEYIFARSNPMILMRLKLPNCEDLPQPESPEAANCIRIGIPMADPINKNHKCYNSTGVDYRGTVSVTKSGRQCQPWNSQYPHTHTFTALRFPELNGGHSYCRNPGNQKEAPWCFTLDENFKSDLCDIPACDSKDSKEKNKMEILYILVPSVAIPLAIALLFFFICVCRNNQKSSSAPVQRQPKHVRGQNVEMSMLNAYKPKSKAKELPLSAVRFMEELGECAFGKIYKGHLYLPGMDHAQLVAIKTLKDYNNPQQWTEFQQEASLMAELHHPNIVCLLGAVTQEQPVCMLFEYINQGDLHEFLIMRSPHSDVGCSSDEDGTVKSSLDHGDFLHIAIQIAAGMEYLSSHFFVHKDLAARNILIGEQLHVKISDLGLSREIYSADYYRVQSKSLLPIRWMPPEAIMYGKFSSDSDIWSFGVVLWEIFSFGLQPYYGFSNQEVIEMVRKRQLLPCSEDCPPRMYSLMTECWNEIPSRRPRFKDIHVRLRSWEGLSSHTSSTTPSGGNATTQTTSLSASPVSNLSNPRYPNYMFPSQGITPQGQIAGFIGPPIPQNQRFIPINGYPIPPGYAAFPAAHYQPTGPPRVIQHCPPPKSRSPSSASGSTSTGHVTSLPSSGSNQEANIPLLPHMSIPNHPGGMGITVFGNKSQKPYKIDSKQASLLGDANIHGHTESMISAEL

Sequence of human Receptor Tyrosine Kinase Like Orphan Receptor 1 (ROR1), full length (human) (Q01973 30-937): as the sequence (Q01973 30-937 I254V/Q261H limits assumed) above, with V225I, H232Q counted along it

B1: ROR1xCD3 BiTE (membrane proximal binding ROR1-BiTE specific for the Frizzled domain) (bispecific antibody, part only; not given: OKT3 scFv and linkers, part only)
chain, part: HHHHHHEVQLVESGGGLVQPGRSLKLSCAASGFIFSEHNMAWVRQAPKKGLEWVATISDDGRNTYYRDSMRGRFTISRENARSTLYLQLDSLRSEDTATYYCASHRYNLFDSWGQGVMVTVSSDIQMTQSPSFLSASVGDRVTINCKASQNIDRYLNWYQQKLGEAPKRLLYNTNKLQTGIPSRFSGSGSATDFTLTISSLQPEDFATYFCLQYNSLPLTFGSGTKLEIK
In experiment [1], B1 had a cytotoxicity against neuroblastoma cell lines; lowest concentration named (micrograms/ml) of 0.01 and a dose dependent cytotoxicity across ROR1 positive pancreatic cell lines (PANC-1, SUIT-2, CFPAC1, HPAF-II, MiaPaCa2, PSN-1); lowest concentration with significant activity of 0.1 ng/mL.

B2: Clone F antibody (antibody, V domains shown)
VH: EVQLVESGGGLVQPGRSLKLSCAASGFIFSEHNMAWVRQAPKKGLEWVATISDDGRNTYYRDSMRGRFTISRENARSTLYLQLDSLRSEDTATYYCASHRYNLFDSWGQGVMVTVSS
VL: DIQMTQSPSFLSASVGDRVTINCKASQNIDRYLNWYQQKLGEAPKRLLYNTNKLQTGIPSRFSGSGSATDFTLTISSLQPEDFATYFCLQYNSLPLTFGSGTKLEIK
notes: Rat anti-ROR1 antibody from a hybridoma library
For the molecule B2, the binding result in experiment [2] is “no binding”.
